Results on 1 substance are retold here after doi:10.1101/701250.

The target in the experiment is APC-TMR (Mus musculus) (UniProt Q61315). Description: TIRF microscopy in vitro motility assay.

The term stoichiometry N denotes a count of units in the complex or per binding partner. APC-TMR, Q61315 1-2845 came in with a stoichiometry N of 2.
